Assay results reported in the nanobody polyreactivity screen of Harvey et al. (2022).

Assay: yeast display, Sf9 membrane polyspecificity reagent, FACS + sequencing; frameworks hold sequencing errors
In short: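 In a synthetic yeast display library (Saccharomyces cerevisiae BJ5465), nanobody expression was induced with galactose for 36–48 hours. FACS gates were set low and high (top ~1%) using anti-HA fluorescence for expression and streptavidin fluorescence for binding of the Sf9 membrane reagent. Each polyreactivity label is drawn from the gate of origin.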

QVQLVESGGGLVQEGASLRLSCAASGFIFLQYAMGWYRQAPGKERELVAAITSGGGTNYADSVKGRFTISRDNAKNTVYLQMNSLKPEDTAVYYCAARTWPWVLGATQDDYWGQGTQVTVSS
polyreactivity (PSR sort gate): low polyreactivity

QVQLVESGGGLVQAGGSLRLSCAASGLTFGFYAMGWYRQAPGKERELVAGISNGGSTNYADSVKGRFTISRDNAKNTVYLQMNSLKPEDTAVYYCAARLYARRLYDYWGQGTQVTVSS
polyreactivity (PSR sort gate): low polyreactivity

QVQLVESGGGLVQAGGILRLSCAASGFTFNRNAMGWYRQAPGKERELVAAISWSGTSTYYADSVKGRFTISRDNAKTTVYLQMNSLKPEDTAVYYCAARVKGQWNTYDSWGQGTQVTVST
polyreactivity (PSR sort gate): high polyreactivity

QVQLVESGGGLVQAGGSLRLRCAASGSIFFRYAMGWYRQAPGKERELVANISSGGGNTYYADSVKGRFTISRDNAKNTVYLQMNSLKPEDTAVYYCARRLATRGHTYDYWGQGTQVTVSS
polyreactivity (PSR sort gate): low polyreactivity

QVQLVESGGGLVQAGGSLRLSCAASGSTFIFNTMGWYRQAPGNERELVAAIRLSGGSTYYADSVKGRFTLSRDNAKYTVYLQMNSLKPEDTAVYYCARRLATRGHTYDYWGQGTQVTVSS
polyreactivity (PSR sort gate): low polyreactivity

QVQLVESGGGLVQAGGSLRLSCAASGSTFTGYAMGWYRQAPGKEREMVAAISSDGITKYADSVKGRFTISRDNAKYTVYLQMNSLKQEDTAVYYCYAPRGSRRSYRRTEYYYWGQGTQVTVSS
polyreactivity (PSR sort gate): high polyreactivity

QVQLVESGGGLVQAGGSLRLSCAASGFTFSAYTMGWYRQAPGKERELVAAINWSGANTYYADSVKGRFTISRDNAKNTVYLQMNSLKPEDTAVYYCNAEDDYTYDRSFGGYKYDYWGQGTQVTVSS
polyreactivity (PSR sort gate): low polyreactivity

QVQLVDSGGGLVQAGGSLRLSCAASGSTSLKNAMGWSRQAPGKERELVAAISSGGSTYYADSVKGRFTISRDNAKNTVYLLMNSLKPEDTAVYYCAAKYLRGLGYWGQGTQVTVSS
polyreactivity (PSR sort gate): high polyreactivity

QVQLVESGGGLVQAGGSLRLSCAASGLIFSQNAMGWYRQAPGKERELVARITWSGTSTYYADSVKGRFTISRDNAKNTVYLQMNSLKPEDTAVYYCAADRPRGRETVDYWGQGTQVTVSS
polyreactivity (PSR sort gate): high polyreactivity

QVQLVESGGGLVQAGGSLRLSCAASGFIFSSYAMGWYRQAPGKEREFVAVISTGGGSTYYADSVKGRFTLSRDNAKNTVYLQMISLKPEDTAVYYCAAKLYDSGGRYWYDYWGQGTQVTVSS
polyreactivity (PSR sort gate): high polyreactivity

QVQLVESGGGLVQAGGSLRLSCAASGSIFPYNDMGWYRQAPGKERELVAAISDSAGSTYYADSVKGRFTISRDNAKNTVYLQMNSLKPEDTAVYYCADYDYWGQGTQVTVSS
polyreactivity (PSR sort gate): low polyreactivity

QVQLVESGGGLVQAGGSLRLSCAASGRTLYKYAMGWYRQAPGKERELVATISSGGRTNYADSVKGRFTISRDNAKNPVYLQMNSLKPEDTAVYYCAADVVRYYYTYDYWGQGTQVTVSS
polyreactivity (PSR sort gate): low polyreactivity

KVQLVESGGGLVQAGGSLRLSCAASGFIFLGYAMGWYRQAPGKEREFVAVISRSGVRTYYADSVKGRFTISRDNAKNTVYLQMNSLKPEDTAVYYCAARYYSTDLEYWGQGTQVTVSS
polyreactivity (PSR sort gate): high polyreactivity

QVQLVESGGGLGKAGGSLRLSCAASGFIFYWNAMGWYRQAPGKEREFVATITWSGGSTYYADSVKGRFTISRDYAKNTVYLQMNSLKPEDTAFYYCAAEAPVQPFYVFNSGIYELDYWGQGTQVTVSS
polyreactivity (PSR sort gate): low polyreactivity

QVQLVESGGGLVQAGGSLRLSCAASGRTFLPYAMGWYRQAPGKERELVAAIDSSGGSTYYADSVKGRFTISRDNAKNTVYLQMNSLKPEDTAVYYCAADLYSSYYLYDSWGQGTQVTVSS
polyreactivity (PSR sort gate): low polyreactivity

QVQLVESGGGLDQAGGSLRLSCAASGRIFTVYGMGWYRQAPGKERELVAAISWSGGGTYYADSVKGRFTISRDNAKNTVYLQMNSLKPEDTAVYYCNADRQYTWSLVFFSSDYDYWGQGTQVTVSS
polyreactivity (PSR sort gate): low polyreactivity

QVQLVESGGGLVQAGGSLRLSCAAYGFTFWWYAMGWYRQAPGNERELVAAISASGASTYYADSVKGRFTISRDNAKNTVYLQMNSLKPEDTAVYYCAVVGLLRLYYWGQGTQVTVSS
polyreactivity (PSR sort gate): high polyreactivity

QVQLVESGGGLVQAGGSLRLSCAASGSIFYGYAMGWYRQAPGTERELVAALSWSDGITYYADSVKGRFTISRDNGKNTGYLQMKNLKPEDTAVYSCAAEYGQYGYDYWGKGTQVTVSS
polyreactivity (PSR sort gate): high polyreactivity

QVQLVESGGGLVQAGGRLRLSCAASGSIFYYNAMGWYRQAPGKERELVAAISRGGRTYYADSVKGRFTISRDNEKNTVYLQMNSLKPEDTAVYYCSARWSGKSINTISFDYWGQGTQVTVSS
polyreactivity (PSR sort gate): high polyreactivity

QVQLVESGGGLVQAGGSLRLSCAASGLTFVPNAMGWYRQAPGKERELFAAISNNGGRTYYADSVKGRFTISRDNAKNTVYLQMNSLKPEDTAVYYCANYLSPGERHSYDYWGQGTKVTVSS
polyreactivity (PSR sort gate): high polyreactivity

QVQLVESGGGLVQAGGSLRLSCAASGRTFRYYVMGWYRQAPGKERELVARISWSGARTYYADSVKGRFTISRDHAKNTVYLQMNSLKPEDTAVYYCAADNPYYYRRDYWGQGTQVTVSS
polyreactivity (PSR sort gate): low polyreactivity

QVQLVESGGGLVQAGGSLRLSCAASGGTFYYYAMGWSRQAPGKERELVAAISTSGTSTYYADSVKGRFTISRDNAKNTVYLQMNSLKPEVTAVYYCAARGLRVSSRGYYWGQGTQLTVSS
polyreactivity (PSR sort gate): high polyreactivity

QDQLEESGGGLVQAGGSLRLSCAASGRTFIYYAMGWYRQAPGKERELVAAITRSGGITNYADSVKGRFTISRDNSKNTVYLQMNSLKTEDTEVYYCAARFYGRRCIYGYWGQGTQVTVSS
polyreactivity (PSR sort gate): high polyreactivity

QVQLVESGGGLVQAGGSLRLSCAASGSNSVYNAMGWYRQAPGKERELVAAISWSGGRTSYADSVKGRFTISRDNAKNTVYLQMNSLKPEDTAVYYCAADELTVLWDEDYWGQGTQVTVSS
polyreactivity (PSR sort gate): low polyreactivity

QVQLVESGGGLVQAGGSLRLSCAASGSIFYGNTMGWYRQEPGKERELVAPIRSVGRTYYADSVKGRYTISRDNAKNTVYLQMYSLKPEDTAVYYCAADPRSYFTSEYWGQGTQVTVSS
polyreactivity (PSR sort gate): high polyreactivity

QVQLVESGGGLVQAGGRLRLSCAASGTTIVYYAMGWSRQAPGKEREMVAAISWSGTRTYYADSVKGRFTISRDTGKNSVYLQMNSLIPEDTAVYYCAAKGGYSTGRPTFTIFNYWGQGTQVTVSS
polyreactivity (PSR sort gate): high polyreactivity

QVQLVESGGGLVQAGGSLRLSCAASGFTFSLYDMGWYRQAPGKERQLVADINGSGGSTYYADSVKGRFTISRDNAKNTVYLQMNSLKPEDTAVYYCAAGPPSRWWYIVDYGYWGQGTQVTVSS
polyreactivity (PSR sort gate): high polyreactivity

QVQLVESGGGLVQAGGSLRLSCAASGSIITYYAMGWYRQAPGKERELVAAISSGGSTYYADSVKGRFTISRDNAKSTVYLQMNRLKPEDSAVYYCNADLLDYWSFILFDYWGQGSQVTVSS
polyreactivity (PSR sort gate): high polyreactivity

QVQLVESGGGLVQAGGSLRLSCAASGFTLTRNAMGWYRQAPGKERELVAAISWSGGTTYYADSVKGRFTISRDNAKNTVYLQMNSLKPEDTADYYCNTASWRAQYYYWGQGTQVTVSS
polyreactivity (PSR sort gate): high polyreactivity

QVQLVESGGGLVQAGGSLRLSCAASGSTFGWNAMGWYRQAPGKERELVAAINKSGGRTYYADSVKGRFTISRDNGKNTVYLQMNRLKPEDTAVYYCAAVTPIRVTSPDYDYWGQGTQVTVSS
polyreactivity (PSR sort gate): low polyreactivity

QVQLVESGGGLVQAGGSLRLSCAASGIIFKDYAMGWYRQAPGKERELVAAISWNGDRTYYADSVKGRFTISRDNAKNTVYLQMNRLKPEDTAVYYCAARFGSCFNYWGQGTQVTVSS
polyreactivity (PSR sort gate): high polyreactivity

QVQLVESGGGLVQAGGSLRLSCAASGSTFTSYAMGWYRQAPGKERELVAGITSRGTSTYYADSVKGRFTISRDNAKNTVYLQMNSLKPEDTAVYYCARDPYQPKVSGRLFLRYDYWGQGTQVTVSS
polyreactivity (PSR sort gate): high polyreactivity

QVQLVESGGGLVQAGGSLRLSCAASGSIFPFYAMGWYRQAPGKERELVAGISGSAGRTYYADSVKGRFTISRDNAKNTVYLQMNSLKPEDTAVYYCAAVYYSSLYDYWGQGTQVTVSS
polyreactivity (PSR sort gate): high polyreactivity

QVQLGESGGGLVQAGGSLRLSCAASGRIFVKYAMGWYRQAPGKERELVAAISKSGGSTYYADSVKGRFTISRDNAKKTVYLQMNSLKPEDTAVYYCATRSREQYSVSYRLDFWGQGTQVTVSS
polyreactivity (PSR sort gate): low polyreactivity

QVQLVESGGGLVQAGGSLRLSCAASGRILLRNVMGWYRQAPGKERELVAVITRTGITYYADSVKGRFTISRDNAKNTVYLQMNSLKPEDTAVYYCAAGLPKYEHDYWGQGTQVNVSS
polyreactivity (PSR sort gate): low polyreactivity

QVQLVESGGGLVQAGGSLRLSCAASGSTSYDNAMGWYRQAPGKERELDASISSDGSTNYADSVKGRFTISRDNAKNTVYLQMNSLKPEDTAVYYCNVEVTRGLSHDPEYDYWGQGTQVTVSS
polyreactivity (PSR sort gate): low polyreactivity

QVQLVESGGGLVQAGGSLRLSCAASGITFYRKAMGWYRPAPGKEREFVAAINYGGSSTRYADSVKGRFTISRDYAKNTVYLQMNSLKPEDTAVYYCAVEKRYPRRRYDYWGQGTQVTVSS
polyreactivity (PSR sort gate): low polyreactivity

QVQLVESGGGLVQAGGSLRLSCGASGFTIQRNAIVWSRQAPGKERELVAAITRGGSTYYADSVKGRFTISRDNAKNTVYLQMNSLKPEDTAVYYCAKRIFSSYIGYGYWGQGTQVTVSS
polyreactivity (PSR sort gate): high polyreactivity

QVQLVESGGGLVQAGGSLRLSCAASGRTFPEYGMGWYRQAPGKEREFVAAISTRGGSTYYANSVKGRFTISRDNAKNTVYLQMNSLKPEDTAVYYCAKVYDRSGGDYWGQGTQVTVSS
polyreactivity (PSR sort gate): low polyreactivity

QVQLVESGGGLVQAGGSLRLSCAASGSIFPPNAMGWYRQAPGKERELVAAITWSGGSTYYADSVKGRFTISRDNAKNTVYLQRNSLKPEDTAVYYCAKEGARSYNVRAYYYRNYYYWGQGTQVTVSS
polyreactivity (PSR sort gate): high polyreactivity

QVQLVESGGGLVQAGGRLRLSCAASGLTFDGYAMGWYRQAPGKERELVAAISWSGNTYYADSVKGRFKISRDNAKNTVYLQMNSLKPEDTAVYYCAVKYYHYGSWGQGTQVTVSS
polyreactivity (PSR sort gate): high polyreactivity

QVQLVESGGGLVQAGGSLRLSCAASGFIFDGNAMGWYRQAPGKERELVAAISSDGGTYYADSVKGRFTISRDNAKNTVYLQMNSLKPEDTAVYYCAAEQTLLYSFGWDEYWGQGTQVTVSS
polyreactivity (PSR sort gate): low polyreactivity

QLQLVESGGGLVQAGGSLRLSCAASGRTFYQYAMGWYRKAPGKERELVAAITTSGGSTYYADSVKGRFTISRDNAKNTVYLQMNSLKPEYTAVYYCAAPYTGYRERGSYKSDYWGQGTQVTVSS
polyreactivity (PSR sort gate): low polyreactivity
